This is an account of results in patent US8445006B2, “Biomolecular coating for implants” (Georgia Tech Research Corporation, priority 2006, dated 2013).

For this experiment, the target named is T1, αvβ3 integrin (Mus musculus, UniProt O54890+P43406).
T1 construct: endogenous in cells; host or cells: MC3T3-E1 murine osteoblast-like cells
T1 sequence (P43406 31-885 limits assumed): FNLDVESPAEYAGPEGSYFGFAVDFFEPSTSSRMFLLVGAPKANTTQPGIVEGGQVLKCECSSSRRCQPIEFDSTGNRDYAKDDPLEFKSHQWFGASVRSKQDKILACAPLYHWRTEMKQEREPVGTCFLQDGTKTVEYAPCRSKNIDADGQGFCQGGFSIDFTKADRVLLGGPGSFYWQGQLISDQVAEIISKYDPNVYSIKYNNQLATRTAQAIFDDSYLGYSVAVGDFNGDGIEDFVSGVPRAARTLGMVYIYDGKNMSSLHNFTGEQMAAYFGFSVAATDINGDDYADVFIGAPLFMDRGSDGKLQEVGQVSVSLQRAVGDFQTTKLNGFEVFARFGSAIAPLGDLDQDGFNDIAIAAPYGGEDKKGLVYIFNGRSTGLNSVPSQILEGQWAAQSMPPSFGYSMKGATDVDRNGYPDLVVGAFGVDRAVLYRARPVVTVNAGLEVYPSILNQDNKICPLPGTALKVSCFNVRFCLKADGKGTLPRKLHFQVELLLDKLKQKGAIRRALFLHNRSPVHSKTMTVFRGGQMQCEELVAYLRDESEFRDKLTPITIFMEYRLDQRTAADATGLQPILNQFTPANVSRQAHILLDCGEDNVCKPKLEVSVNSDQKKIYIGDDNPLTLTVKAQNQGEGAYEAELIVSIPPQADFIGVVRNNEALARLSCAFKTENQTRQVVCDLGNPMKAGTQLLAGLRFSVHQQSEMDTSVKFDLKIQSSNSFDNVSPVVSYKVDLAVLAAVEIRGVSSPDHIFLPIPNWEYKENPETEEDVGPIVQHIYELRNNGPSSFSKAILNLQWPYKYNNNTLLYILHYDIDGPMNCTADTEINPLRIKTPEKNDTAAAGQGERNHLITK
T1 sequence (P43406 887-1044 limits assumed): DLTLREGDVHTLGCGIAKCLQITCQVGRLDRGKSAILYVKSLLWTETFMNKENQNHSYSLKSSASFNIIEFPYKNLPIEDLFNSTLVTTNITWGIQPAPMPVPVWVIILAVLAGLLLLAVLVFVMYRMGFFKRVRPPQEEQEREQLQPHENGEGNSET
T1 sequence (O54890 26-787): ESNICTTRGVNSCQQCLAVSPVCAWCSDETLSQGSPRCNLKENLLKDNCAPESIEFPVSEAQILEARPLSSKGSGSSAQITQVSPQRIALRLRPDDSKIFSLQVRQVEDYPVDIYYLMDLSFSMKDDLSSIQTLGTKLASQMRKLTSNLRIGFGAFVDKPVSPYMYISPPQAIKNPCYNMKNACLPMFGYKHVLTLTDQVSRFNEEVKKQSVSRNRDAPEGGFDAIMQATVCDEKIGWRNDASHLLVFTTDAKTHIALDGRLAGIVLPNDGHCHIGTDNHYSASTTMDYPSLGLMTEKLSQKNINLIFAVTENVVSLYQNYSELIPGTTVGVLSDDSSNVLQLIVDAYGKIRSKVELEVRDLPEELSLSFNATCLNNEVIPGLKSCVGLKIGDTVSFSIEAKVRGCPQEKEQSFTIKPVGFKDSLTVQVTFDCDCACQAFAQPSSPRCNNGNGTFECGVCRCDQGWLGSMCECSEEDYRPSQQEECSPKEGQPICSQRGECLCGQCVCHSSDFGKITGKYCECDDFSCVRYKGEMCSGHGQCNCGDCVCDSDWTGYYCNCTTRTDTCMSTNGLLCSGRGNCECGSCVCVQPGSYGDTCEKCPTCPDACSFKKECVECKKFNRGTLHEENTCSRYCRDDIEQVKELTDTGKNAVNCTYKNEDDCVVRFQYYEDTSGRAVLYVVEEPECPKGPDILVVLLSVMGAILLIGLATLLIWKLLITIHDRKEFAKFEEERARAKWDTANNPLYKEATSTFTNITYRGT
The experiment is described as follows: Crosslinking/extraction immunostaining of bound integrin. The class given is cell-based, murine. The conditions noted are these: 4 h on saturated ligand-functionalized SAMs. Here is the method:
Surfaces were prepared on either 6-well plate lids or 35 mm tissue culture dishes, and cells seeded at 75 cells/mm^2 in serum-containing media for 4 h at 37° C. For integrin staining, a cross-linking/extraction biochemical method that selectively isolates bound integrins was employed. Cells were washed, and 1.0 mM DTSSP (Pierce) was added for 15 min to cross-link ligated integrins. After quenching with 50 mM Tris, uncrosslinked cellular components were extracted in 0.1% SDS supplemented with protease inhibitors (350 μg/ml PMSF). Samples were then blocked in 5% FBS for 1 h and incubated with integrin-specific antibodies for 1 h at 37° C. Fluorochrome-labeled secondary antibodies were then incubated for 1 h at 37° C. Following washing, samples were mounted on slides with Gel/Mount mounting media (Biomeda, Foster City, Calif.). For staining of focal adhesions, cells were extracted in 0.5% Triton X-100 in ice-cold cytoskeleton buffer (50 mM NaCl, 3 mM MgCl2, 150 mM sucrose, 20 μg/ml aprotonin, 1 μg/ml leupeptin, 1 mM PMSF, 50 mM Tris, pH 6.8) for 2 min and fixed in cold 3.7% formaldehyde in DPBS for 5 min. Cultures were blocked, subsequently incubated in anti-vinculin monoclonal antibody (1:70 in 5% FBS) and fluorochrome-labeled secondary antibodies for 1 h, and samples mounted on slides.
Since MC3T3-E1 cells assemble robust focal adhesions containing clustered integrins and intracellular structural and signaling proteins, integrin binding and focal adhesion assembly on the engineered interfaces was examined by staining for different integrin subunits and vinculin, which localizes to focal adhesions. MC3T3-E1 cells were allowed to adhere on each saturated ligand-functionalized support for 4 h and integrin binding was evaluated via a crosslinking/extraction and immunostaining protocol, which isolates integrins ligated to the ligand. […] The crosslinking and extraction technique relies in coupling free amines on both the receptor and ligand. Since the tethered RGD has no free amine, the αvβ3 staining in the RGD surfaces is attributed to focal adhesions that were not completely extracted. […] Both surfaces assembled focal adhesions containing vinculin.

Turning to “GRGDSPC [RGD peptide, linear RGD oligopeptide purchased from BACHEM; primarily supports αvβ3-mediated adhesion, reference compound]”, the “bound αvβ3 integrin staining” value is reported as “clustering of αvβ3”.

On to “FNIII7-10: monobiotinylated recombinant fibronectin fragment spanning the 7-10th type III repeats of fibronectin; α5β1 integrin ligand”, for which the “bound αvβ3 integrin staining” value is given as “minimal αvβ3 binding”.
